Data reported in patent US20180155451A1 (published 2018).

The binders below were run against T1, FcγRIa extracellular domain with C-terminal His tag (human, UniProt P12314 16-292) (assay: SPR Biacore, relative FcγRIa binding vs GpH7-B3/GpL16-k0).
T1 construct: extracellular domain; also called FcgRI; CD64; not shown: His tag at the C terminus
T1 sequence (P12314 16-292): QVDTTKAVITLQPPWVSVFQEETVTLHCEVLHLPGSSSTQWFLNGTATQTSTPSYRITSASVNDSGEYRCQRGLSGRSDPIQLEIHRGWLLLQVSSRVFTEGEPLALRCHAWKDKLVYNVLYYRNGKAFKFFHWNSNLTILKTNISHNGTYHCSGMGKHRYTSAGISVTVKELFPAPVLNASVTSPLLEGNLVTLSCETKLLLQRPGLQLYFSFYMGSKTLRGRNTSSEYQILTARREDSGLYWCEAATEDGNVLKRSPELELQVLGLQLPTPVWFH

Binder	Ho/Con_1a
GpH7-B3 variant Y300_12R/GpL16-k0 (antibody, human IgG1, kappa, mutation in both H chains; also called Ho Ab Y300_12R; Y300R) heavy: not shown light: DIVMTQSPLSLPVTPGEPASISCQASESLVHSNRNTYLHWYLQKPGQSPQLLIYKVSNRFSGVPDRFSGSGSGTDFTLKISRVEAEDVGVYYCSQNTHVPPTFGQGTKVEIERTVAAPSVFIFPPSDEQLKSGTASVVCLLNNFYPREAKVQWKVDNALQSGNSQESVTEQDSKDSTYSLSSTLTLSKADYEKHKVYACEVTHQGLSSPVTKSFNRGEC	96.5 % of HoCon Ab (=100)

The binders below were run against T1, FcγRIa extracellular domain with … (assay: SPR Biacore, relative FcγRIa binding vs GpH7-A5/GpH7-B3/GpL16-k0).

Binder	He/Con_1a
GpH7-A5/GpH7-B3 variant S298_11K/GpL16-k0 (antibody, human IgG1, kappa, mutation in one H chain only; also called He Ab S298_11K; S298K) heavy 1: not shown heavy 2: not shown light: DIVMTQSPLSLPVTPGEPASISCQASESLVHSNRNTYLHWYLQKPGQSPQLLIYKVSNRFSGVPDRFSGSGSGTDFTLKISRVEAEDVGVYYCSQNTHVPPTFGQGTKVEIERTVAAPSVFIFPPSDEQLKSGTASVVCLLNNFYPREAKVQWKVDNALQSGNSQESVTEQDSKDSTYSLSSTLTLSKADYEKHKVYACEVTHQGLSSPVTKSFNRGEC	109 % of HeCon Ab (=100)
GpH7-A5/GpH7-B3 variant S298_12R/GpL16-k0 (antibody, human IgG1, kappa, mutation in one H chain only; also called He Ab S298_12R; S298R) heavy 1: not shown heavy 2: not shown light: DIVMTQSPLSLPVTPGEPASISCQASESLVHSNRNTYLHWYLQKPGQSPQLLIYKVSNRFSGVPDRFSGSGSGTDFTLKISRVEAEDVGVYYCSQNTHVPPTFGQGTKVEIERTVAAPSVFIFPPSDEQLKSGTASVVCLLNNFYPREAKVQWKVDNALQSGNSQESVTEQDSKDSTYSLSSTLTLSKADYEKHKVYACEVTHQGLSSPVTKSFNRGEC	109 % of HeCon Ab (=100)
GpH7-A5/GpH7-B3 variant S298_06M/GpL16-k0 (antibody, human IgG1, kappa, mutation in one H chain only; also called He Ab S298_06M; S298M) heavy 1: not shown heavy 2: not shown light: DIVMTQSPLSLPVTPGEPASISCQASESLVHSNRNTYLHWYLQKPGQSPQLLIYKVSNRFSGVPDRFSGSGSGTDFTLKISRVEAEDVGVYYCSQNTHVPPTFGQGTKVEIERTVAAPSVFIFPPSDEQLKSGTASVVCLLNNFYPREAKVQWKVDNALQSGNSQESVTEQDSKDSTYSLSSTLTLSKADYEKHKVYACEVTHQGLSSPVTKSFNRGEC	114 % of HeCon Ab (=100)
GpH7-A5/GpH7-B3 variant S267_02A/GpL16-k0 (antibody, human IgG1, kappa, mutation in one H chain only; also called He Ab S267_02A; S267A) heavy 1: not shown heavy 2: not shown light: DIVMTQSPLSLPVTPGEPASISCQASESLVHSNRNTYLHWYLQKPGQSPQLLIYKVSNRFSGVPDRFSGSGSGTDFTLKISRVEAEDVGVYYCSQNTHVPPTFGQGTKVEIERTVAAPSVFIFPPSDEQLKSGTASVVCLLNNFYPREAKVQWKVDNALQSGNSQESVTEQDSKDSTYSLSSTLTLSKADYEKHKVYACEVTHQGLSSPVTKSFNRGEC	109 % of HeCon Ab (=100)
GpH7-A5/GpH7-B3 variant S298_07I/GpL16-k0 (antibody, human IgG1, kappa, mutation in one H chain only; also called He Ab S298_07I; S298I) heavy 1: not shown heavy 2: not shown light: DIVMTQSPLSLPVTPGEPASISCQASESLVHSNRNTYLHWYLQKPGQSPQLLIYKVSNRFSGVPDRFSGSGSGTDFTLKISRVEAEDVGVYYCSQNTHVPPTFGQGTKVEIERTVAAPSVFIFPPSDEQLKSGTASVVCLLNNFYPREAKVQWKVDNALQSGNSQESVTEQDSKDSTYSLSSTLTLSKADYEKHKVYACEVTHQGLSSPVTKSFNRGEC	107 % of HeCon Ab (=100)
GpH7-A5/GpH7-B3 variant S267_08L/GpL16-k0 (antibody, human IgG1, kappa, mutation in one H chain only; also called He Ab S267_08L; S267L) heavy 1: not shown heavy 2: not shown light: DIVMTQSPLSLPVTPGEPASISCQASESLVHSNRNTYLHWYLQKPGQSPQLLIYKVSNRFSGVPDRFSGSGSGTDFTLKISRVEAEDVGVYYCSQNTHVPPTFGQGTKVEIERTVAAPSVFIFPPSDEQLKSGTASVVCLLNNFYPREAKVQWKVDNALQSGNSQESVTEQDSKDSTYSLSSTLTLSKADYEKHKVYACEVTHQGLSSPVTKSFNRGEC	101 % of HeCon Ab (=100)
GpH7-A5/GpH7-B3 variant S298_14T/GpL16-k0 (antibody, human IgG1, kappa, mutation in one H chain only; also called He Ab S298_14T; S298T) heavy 1: not shown heavy 2: not shown light: DIVMTQSPLSLPVTPGEPASISCQASESLVHSNRNTYLHWYLQKPGQSPQLLIYKVSNRFSGVPDRFSGSGSGTDFTLKISRVEAEDVGVYYCSQNTHVPPTFGQGTKVEIERTVAAPSVFIFPPSDEQLKSGTASVVCLLNNFYPREAKVQWKVDNALQSGNSQESVTEQDSKDSTYSLSSTLTLSKADYEKHKVYACEVTHQGLSSPVTKSFNRGEC	107 % of HeCon Ab (=100)
GpH7-A5/GpH7-B3 variant S298_03V/GpL16-k0 (antibody, human IgG1, kappa, mutation in one H chain only; also called He Ab S298_03V; S298V) heavy 1: not shown heavy 2: not shown light: DIVMTQSPLSLPVTPGEPASISCQASESLVHSNRNTYLHWYLQKPGQSPQLLIYKVSNRFSGVPDRFSGSGSGTDFTLKISRVEAEDVGVYYCSQNTHVPPTFGQGTKVEIERTVAAPSVFIFPPSDEQLKSGTASVVCLLNNFYPREAKVQWKVDNALQSGNSQESVTEQDSKDSTYSLSSTLTLSKADYEKHKVYACEVTHQGLSSPVTKSFNRGEC	110 % of HeCon Ab (=100)
GpH7-A5/GpH7-B3 variant S267_16H/GpL16-k0 (antibody, human IgG1, kappa, mutation in one H chain only; also called He Ab S267_16H; S267H) heavy 1: not shown heavy 2: not shown light: DIVMTQSPLSLPVTPGEPASISCQASESLVHSNRNTYLHWYLQKPGQSPQLLIYKVSNRFSGVPDRFSGSGSGTDFTLKISRVEAEDVGVYYCSQNTHVPPTFGQGTKVEIERTVAAPSVFIFPPSDEQLKSGTASVVCLLNNFYPREAKVQWKVDNALQSGNSQESVTEQDSKDSTYSLSSTLTLSKADYEKHKVYACEVTHQGLSSPVTKSFNRGEC	100 % of HeCon Ab (=100)
GpH7-A5/GpH7-B3 variant S267_09D/GpL16-k0 (antibody, human IgG1, kappa, mutation in one H chain only; also called He Ab S267_09D; S267D) heavy 1: not shown heavy 2: not shown light: DIVMTQSPLSLPVTPGEPASISCQASESLVHSNRNTYLHWYLQKPGQSPQLLIYKVSNRFSGVPDRFSGSGSGTDFTLKISRVEAEDVGVYYCSQNTHVPPTFGQGTKVEIERTVAAPSVFIFPPSDEQLKSGTASVVCLLNNFYPREAKVQWKVDNALQSGNSQESVTEQDSKDSTYSLSSTLTLSKADYEKHKVYACEVTHQGLSSPVTKSFNRGEC	110 % of HeCon Ab (=100)
